Experimental findings from patent US20230056252A1 (Gilead, published 2023) are described below.

In general, Kd refers to a measure of binding affinity in units of concentration. Read a high Kd as weaker binding. Broadly, the koff is the rate constant with which the complex falls apart. Lower therefore signals slow dissociation. A word on the kon: it is the rate constant with which the complex forms. The low end stands for slow association, the high end for fast association.

The chains are these.
B1: huSP34.34.6 Fab-HF (Fab, V domains shown)
VH: EVQLVESGGGLVQPGGSLRLSCAASGFTFNTYAMNWVRQAPGKGLEWVGRIRSKYNNYATYYAASVKGRFTISRDDSKNSLYLQMNSLKTEDTAMYYCVRHGNFGHSYVSWFAYWGQGTLVTVSS
VL: QAVVTQPPSLTVSPGGTVTLTCGSSTGAVTTGHYANWVQQKPGQAPRGLIGGTSNRAPGVPARFSGSLSGGKAALTISGAQPEDEAEYYCALWYSARWVFGGGTKLTVL
notes: also called HC34+LC6
B2: huSP34.35.15 Fab-HF (Fab, V domains shown)
VH: EVQLVESGGGLVQPGGSLRLSCAASGFTFNDYAMNWVRQAPGKGLEWVGRTRSKYNNYATYYAASVKGRFTISRDDSKNSLYLQMNSLKTEDTAMYYCVRHGNFGHSYVSWFAYWGQGTLVTVSS
VL: QAVVTQPPSLTVSPGGTVTLTCGSSTGAVTTGHYANWVQQKPGQAPRGLIGGTNKRAPGVPARFSGSLSGGKAALTISGAQPEDEAEYYCALWYSARWVFGGGTKLTVL
notes: also called HC35+LC15
B3: huSP34.35.6 Fab-HF (Fab, V domains shown)
VH: EVQLVESGGGLVQPGGSLRLSCAASGFTFNDYAMNWVRQAPGKGLEWVGRTRSKYNNYATYYAASVKGRFTISRDDSKNSLYLQMNSLKTEDTAMYYCVRHGNFGHSYVSWFAYWGQGTLVTVSS
VL: QAVVTQPPSLTVSPGGTVTLTCGSSTGAVTTGHYANWVQQKPGQAPRGLIGGTSNRAPGVPARFSGSLSGGKAALTISGAQPEDEAEYYCALWYSARWVFGGGTKLTVL
notes: also called HC35+LC6
B4: huSP34.36.10 Fab-HF (Fab, V domains shown)
VH: EVQLVESGGGLVQPGGSLRLSCAASGFTFNDYAMNWVRQAPGKGLEWVGRIRSKYNNYATYYAASVKGRFTISRDDSKNSLYLQMNSLKTEDTAMYYCVRHGNFGHSYVSWFAYWGQGTLVTVSS
VL: QAVVTQPPSLTVSPGGTVTLTCGSSTGAVTTGHYANWVQQKPGQAPRGLIGGTNKRAPGVPARFSGSLSGGKAALTISGAQPEDEAEYYCALWYSNRWVFGGGTKLTVL
notes: also called HC36+LC10
B5: huSP34.35.12 Fab-H (Fab, V domains shown)
VH: EVQLVESGGGLVQPGGSLRLSCAASGFTFNDYAMNWVRQAPGKGLEWVGRTRSKYNNYATYYAASVKGRFTISRDDSKNSLYLQMNSLKTEDTAMYYCVRHGNFGHSYVSWFAYWGQGTLVTVSS
VL: QAVVTQPPSLTVSPGGTVTLTCGSSTGAVTTGHYANWVQQKPGQAPRGLIGGTNKRAPWTPARFSGSLSGGKAALTISGAQPEDEAEYYCALWYSNRWVFGGGTKLTVL
notes: also called HC35+LC12
B6: huSP34.37.10 Fab-HF (Fab, V domains shown)
VH: EVQLVESGGGLVQPGGSLRLSCAASGFTFNTYAMNWVRQAPGKGLEWVGRTRSKYNNYATYYAASVKGRFTISRDDSKNSLYLQMNSLKTEDTAMYYCVRHGNFGHSYVSWFAYWGQGTLVTVSS
VL: QAVVTQPPSLTVSPGGTVTLTCGSSTGAVTTGHYANWVQQKPGQAPRGLIGGTNKRAPGVPARFSGSLSGGKAALTISGAQPEDEAEYYCALWYSNRWVFGGGTKLTVL
notes: also called HC37+LC10
B7: huSP34.3.7 Fab-HF (Fab, V domains shown)
VH: EVQLVESGGGLVQPGGSLRLSCAASGFTFNTYAMNWVRQAPGKGLEWVGRIRSKYNNYATYYADSVKGRFTISRDDSKNSLYLQMNSLRTEDTAVYYCVRHGNFGHSYVSWFAYWGQGTLVTVSS
VL: QAVVTQEPSLTVSPGGTVTLTCRSSTGAVTTGHYANWVQQKPGQAPRGLIGGTNKRAPGVPARFSGSLLGGKAALTISGAQPEDEAEYYCALWYSNLWVFGGGTKLTVL
notes: also called HC3+LC7
B8: huSP34.11.10 Fab-HF (Fab, V domains shown)
VH: EVQLVESGGGLVQPGGSLRLSCAASGFTFSTYAMNWVRQAPGKGLEWVGRIRSKYNNYATYYAASVKGRFTISRDDSKNSLYLQMNSLRTEDTAVYYCVRHGNFGHSYVSWFAYWGQGTLVTVSS
VL: QAVVTQPPSLTVSPGGTVTLTCGSSTGAVTTGHYANWVQQKPGQAPRGLIGGTNKRAPGVPARFSGSLSGGKAALTISGAQPEDEAEYYCALWYSNRWVFGGGTKLTVL
notes: also called HC11+LC10
B9: huSP34.12.9 Fab-HF (Fab, V domains shown)
VH: EVQLVESGGGLVQPGGSLRLSCAASGFTFSTYAMNWVRQAPGKGLEWVARIRSKYNNYATYYAASVKGRFTISRDDSKNSLYLQMNSLRTEDTAVYYCVRHGNFGHSYVSWFAYWGQGTLVTVSS
VL: QAVVTQPPSLTVSPGGTVTLTCGSSTGAVTTGHYANWVQQKPGQAPRGLIGGTNKRAPGVPARFSGSLSGGKAALTISGAQPEDEAEYYCALWYSNLWVFGGGTKLTVL
notes: also called HC12+LC9
B10: huSP34.12.7 Fab-HF (Fab, V domains shown)
VH: EVQLVESGGGLVQPGGSLRLSCAASGFTFSTYAMNWVRQAPGKGLEWVARIRSKYNNYATYYAASVKGRFTISRDDSKNSLYLQMNSLRTEDTAVYYCVRHGNFGHSYVSWFAYWGQGTLVTVSS
VL: QAVVTQEPSLTVSPGGTVTLTCRSSTGAVTTGHYANWVQQKPGQAPRGLIGGTNKRAPGVPARFSGSLLGGKAALTISGAQPEDEAEYYCALWYSNLWVFGGGTKLTVL
notes: also called HC12+LC7
B11: huSP34.3.9 Fab-HF (Fab, V domains shown)
VH: EVQLVESGGGLVQPGGSLRLSCAASGFTFNTYAMNWVRQAPGKGLEWVGRIRSKYNNYATYYADSVKGRFTISRDDSKNSLYLQMNSLRTEDTAVYYCVRHGNFGHSYVSWFAYWGQGTLVTVSS
VL: QAVVTQPPSLTVSPGGTVTLTCGSSTGAVTTGHYANWVQQKPGQAPRGLIGGTNKRAPGVPARFSGSLSGGKAALTISGAQPEDEAEYYCALWYSNLWVFGGGTKLTVL
notes: also called HC3+LC9
B12: huSP34.11.7 Fab-HF (Fab, V domains shown)
VH: EVQLVESGGGLVQPGGSLRLSCAASGFTFSTYAMNWVRQAPGKGLEWVGRIRSKYNNYATYYAASVKGRFTISRDDSKNSLYLQMNSLRTEDTAVYYCVRHGNFGHSYVSWFAYWGQGTLVTVSS
VL: QAVVTQEPSLTVSPGGTVTLTCRSSTGAVTTGHYANWVQQKPGQAPRGLIGGTNKRAPGVPARFSGSLLGGKAALTISGAQPEDEAEYYCALWYSNLWVFGGGTKLTVL
notes: also called HC11+LC7
B13: huSP34.13.8 Fab-HF (Fab, V domains shown)
VH: EVQLVESGGGLVQPGGSLRLSCAASGFTFSTYAMNWVRQAPGKGLEWVGRIRSKYNNYATYYAASVKGRFTISRDDSKNTLYLQMNSLRTEDTAVYYCVRHGNFGHSYVSWFAYWGQGTLVTVSS
VL: QAVVTQEPSLTVSPGGTVTLTCGSSTGAVTTGHYANWVQQKPGQAPRGLIGGTNKRAPGVPARFSGSLLGGKAALTISGAQPEDEAEYYCALWYSNRWVFGGGTKLTVL
notes: also called HC13+LC8
B14: huSP34.12.8 Fab-HF (Fab, V domains shown)
VH: EVQLVESGGGLVQPGGSLRLSCAASGFTFSTYAMNWVRQAPGKGLEWVARIRSKYNNYATYYAASVKGRFTISRDDSKNSLYLQMNSLRTEDTAVYYCVRHGNFGHSYVSWFAYWGQGTLVTVSS
VL: QAVVTQEPSLTVSPGGTVTLTCGSSTGAVTTGHYANWVQQKPGQAPRGLIGGTNKRAPGVPARFSGSLLGGKAALTISGAQPEDEAEYYCALWYSNRWVFGGGTKLTVL
notes: also called HC12+LC8
B15: huSP34.12.10 Fab-HF (Fab, V domains shown)
VH: EVQLVESGGGLVQPGGSLRLSCAASGFTFSTYAMNWVRQAPGKGLEWVARIRSKYNNYATYYAASVKGRFTISRDDSKNSLYLQMNSLRTEDTAVYYCVRHGNFGHSYVSWFAYWGQGTLVTVSS
VL: QAVVTQPPSLTVSPGGTVTLTCGSSTGAVTTGHYANWVQQKPGQAPRGLIGGTNKRAPGVPARFSGSLSGGKAALTISGAQPEDEAEYYCALWYSNRWVFGGGTKLTVL
notes: also called HC12+LC10
B16: huSP34.13.7 Fab-HF (Fab, V domains shown)
VH: EVQLVESGGGLVQPGGSLRLSCAASGFTFSTYAMNWVRQAPGKGLEWVGRIRSKYNNYATYYAASVKGRFTISRDDSKNTLYLQMNSLRTEDTAVYYCVRHGNFGHSYVSWFAYWGQGTLVTVSS
VL: QAVVTQEPSLTVSPGGTVTLTCRSSTGAVTTGHYANWVQQKPGQAPRGLIGGTNKRAPGVPARFSGSLLGGKAALTISGAQPEDEAEYYCALWYSNLWVFGGGTKLTVL
notes: also called HC13+LC7
B17: huSP34.11.8 Fab-HF (Fab, V domains shown)
VH: EVQLVESGGGLVQPGGSLRLSCAASGFTFSTYAMNWVRQAPGKGLEWVGRIRSKYNNYATYYAASVKGRFTISRDDSKNSLYLQMNSLRTEDTAVYYCVRHGNFGHSYVSWFAYWGQGTLVTVSS
VL: QAVVTQEPSLTVSPGGTVTLTCGSSTGAVTTGHYANWVQQKPGQAPRGLIGGTNKRAPGVPARFSGSLLGGKAALTISGAQPEDEAEYYCALWYSNRWVFGGGTKLTVL
notes: also called HC11+LC8
B18: huSP34.11.9 Fab-HF (Fab, V domains shown)
VH: EVQLVESGGGLVQPGGSLRLSCAASGFTFSTYAMNWVRQAPGKGLEWVGRIRSKYNNYATYYAASVKGRFTISRDDSKNSLYLQMNSLRTEDTAVYYCVRHGNFGHSYVSWFAYWGQGTLVTVSS
VL: QAVVTQPPSLTVSPGGTVTLTCGSSTGAVTTGHYANWVQQKPGQAPRGLIGGTNKRAPGVPARFSGSLSGGKAALTISGAQPEDEAEYYCALWYSNLWVFGGGTKLTVL
notes: also called HC11+LC9

The target in one test is T1, biotinylated CD3 epsilon:delta heterodimer protein (Amsbio AMS.CDD-H52WO) (Homo sapiens (Human), UniProt P07766 23-126; P04234 22-105).
T1 construct: also called CD3 heterodimer
The experiment in a line: BLI (Octet), CD3 on SA sensor, Fab analyte. (In BLI a coated tip is dipped into the sample, and binding shifts an interference pattern.)
Protocol: (§1) The CD3 binding kinetics of the purified huSP34 Fabs were determined using OctetRed384 (Pall ForteBio, CA) biolayer interferometry (BLI). […] Streptavidin (SA) coated biosensors tips (Pall ForteBio, CA) were used to capture biotinylated CD3 epsilon: delta heterodimer and typical immobilization levels captured on the SA sensors were 1 nm which approximately translates to 300 ng/ml of captured protein. For kinetic measurements biosensors were first pre-wetted with assay buffer for 10 minutes to remove protective sucrose coating followed by the recommended regeneration conditions for standardization of the biosensor surface for the experiment. In order to load the biosensors with antigen, 300 ng/ml of biotinylated CD3 epsilon: delta heterodimer protein (Amsbio AMS.CDD-H52WO) was immobilized on the SA sensor for 900 seconds. The CD3 loaded biosensors were then blocked with 20 ug/ml biocytin (sigma) for 200 seconds and then dipped into assay buffer containing wells for 200 seconds to remove any non-specific protein or unbound CD3 heterodimer.
(§2) CD3 loaded and biocytin blocked biosensors were then transferred into fresh assay buffer for 200 seconds to collect a baseline read. Kinetic measurements for anti-CD3 Fab and bispecific antibody binding were performed by dipping the CD3-coated biosensors into wells containing multiple concentrations of Fab or Ab (0-300 nM) for 100 seconds followed by a 300 second dissociation time by transferring the biosensors into assay buffer containing wells. The CD3 loaded sensors were then regenerated for the next kinetic measurement. Biosensors were generated by removing bound Fabs or Ab from immobilized CD3 on SA biosensors. Regeneration conditions used consisted of 3 cycles of 5 seconds of dipping the biosensors in Regeneration Buffer (10 mM Glycine HCl pH 1.5) followed by Assay Buffer (10 mM sodium phosphate pH 7.4, 140 mM Sodium Chloride, 0.005% Tween20 with 0.2% BSA).
The molecule B1 had a Kd of 8 nM, an off-rate constant (koff) of 0.00357 s⁻¹ and a kon of 449000 M⁻¹ s⁻¹.

As for B2, the Kd stood at 303 nM, the koff is 0.17 s⁻¹ and the kon is 560000 M⁻¹ s⁻¹.

Regarding B3, binding was characterised by a dissociation constant (Kd) of 178 nM, the koff is 0.187 s⁻¹ and the association rate constant (kon) came out at 1.55e+06 M⁻¹ s⁻¹.

As for B4, the dissociation constant Kd turned out to be 5.8 nM, the off-rate constant (koff) was 0.00929 s⁻¹ and the on-rate (kon) worked out at 1.6e+06 M⁻¹ s⁻¹.

B5: the equilibrium dissociation constant (Kd) amounted to 125 nM, the koff was found to be 0.103 s⁻¹ and the on-rate (kon) was 2.08e+06 M⁻¹ s⁻¹.

Molecule B6 yielded a dissociation constant (Kd) of 16.1 nM, an off-rate constant (koff) of 0.00267 s⁻¹ and a kon of 171000 M⁻¹ s⁻¹.

The next test has as its target T1, biotinylated CD3 epsilon:delta …. The experiment in a line: BLI (Octet), CD3 on SA sensor, Fab analyte. This is another data set of the same source.
Protocol: as §1, §2
On to B7, for which the affinity, expressed as Kd, was 5.6 nM; the koff amounted to 0.00168 s⁻¹; the association rate constant (kon) worked out at 323000 M⁻¹ s⁻¹.

In the case of B8, the affinity, expressed as Kd, was 2.8 nM; the koff is 0.00192 s⁻¹; the on-rate constant (kon) was found to be 697000 M⁻¹ s⁻¹.

For the molecule B9, the dissociation constant Kd was determined as 3.2 nM, the dissociation rate constant (koff) worked out at 0.00335 s⁻¹ and the kon is 1.04e+06 M⁻¹ s⁻¹.

Take B10: binding was put at a Kd of 2.7 nM, the koff was determined as 0.00244 s⁻¹ and the kon was found to be 966000 M⁻¹ s⁻¹.

In turn, B11 gave a Kd of 3.5 nM, an off-rate constant (koff) of 0.00221 s⁻¹ and an association rate constant (kon) of 632000 M⁻¹ s⁻¹.

For the molecule B12, binding was characterised by a dissociation constant (Kd) of 3.6 nM, the koff came to 0.00212 s⁻¹ and the kon is 613000 M⁻¹ s⁻¹.

With B13, the affinity, expressed as Kd, was 2.5 nM; the koff was determined as 0.00216 s⁻¹; the on-rate (kon) turned out to be 933000 M⁻¹ s⁻¹.

With B14, binding was put at a Kd of 3.4 nM, the koff is 0.00166 s⁻¹ and the kon was found to be 493000 M⁻¹ s⁻¹.

B15: the Kd was found to be 4.2 nM, the koff stood at 0.00205 s⁻¹ and the association rate constant (kon) turned out to be 501000 M⁻¹ s⁻¹.

Take B16: the dissociation constant Kd is 2.8 nM, the dissociation rate constant (koff) was determined as 0.00275 s⁻¹ and the kon stood at 1.01e+06 M⁻¹ s⁻¹.

B17 displayed a Kd of 2.8 nM, an off-rate constant (koff) of 0.00165 s⁻¹ and an association rate constant (kon) of 610000 M⁻¹ s⁻¹.

B18 gave a Kd of 3.4 nM, a dissociation rate constant (koff) of 0.00284 s⁻¹ and a kon of 898000 M⁻¹ s⁻¹.
